According to US20250304711A1, “Methods and Compositions for Treating Obesity, Obesity-Related Diseases, Fatty Liver and Fatty Liver Associated Diseases with Anti-CD24 Agents” (The Board of Trustees of the Leland Stanford Junior …, priority 2022, published 2025):

B1: MOSW3: SWA11 mouse IgG2a, C1q and Fc silenced (L234A, L235A, K320A, K322A, P329G); SEQ ID NO: 17 and 34 (antibody)
heavy: DVQLQESGPDLVKPSQSLSLTCTVTGYSITSGYTWHWIRQFPGNTVEWMGYIQYTGSTRYNPALRGRLSISRDTSKNQFFLQLISVTTADTGTYFCARGTTASFDYWGQGTTLTVASAKTTAPSVYPLAPVCGDTTGSSVTLGCLVKGYFPEPVTLTWNSGSLSSGVHTFPAVLQSDLYTLSSSVTVTSSTWPSQSITCNVAHPASSTKVDKKIEPRGPTIKPCPPCKCPAPNAAGGPSVFIFPPKIKDVLMISLSPIVTCVVVDVSEDDPDVQISWFVNNVEVHTAQTQTHREDYNSTLRVVSALPIQHQDWMSGKEFACAVNNKDLGAPIERTISKPKGSVRAPQVYVLPPPEEEMTKKQVTLTCMVTDFMPEDIYVEWTNNGKTELNYKNTEPVLDSDGSYFMYSKLRVEKKNWVERNSYSCSVVHEGLHNHHTTKSFSRTPGK
light: DIVMSQSPSSLNVSVGEKVTMRCRSSQSLLYSSDQKNYLTWYQQKPGQSPKLLISWASTRASGVPDRFTGSGSGTDFTLTISSVKAEDLGVYYCQQYFIYPLTFGVGTKLGLKRADAAPTVSIFPPSSEQLTSGGASVVCFLNNFYPKDINVKWKIDGSERQNGVLNSWTDQDSKDSTYSMSSTLTLTKDEYERHNSYTCEATHKTSTSPIVKSFNRNEC

How the values were obtained:
[1] = system: Huh7D cells; assay: Steatosis in Huh7D cells cultured in fatty medium, Nile Red stain; assay type: cell-based; conditions: Huh7D cells 4 days in fatty medium, then treated 3 days in fatty medium; Nile Red fluorescence; agents at 1 μg/mL unless otherwise specified
Procedure: FIG. 1A-1D: Relative lipid accumulation of Huh 7D cells when cultured on fatty medium and treated with various anti-CD24 agents. Agents were added at 1 μg/mL unless otherwise specified as in the Fab. MOSW1, SWA11, ML5, SN3: mouse anti human CD24 antibodies; MOSW2: SWA11 antibody with point mutations to silent complement activity; MOSW3: SWA11 antibody with point mutations to silent complement activity, antibody-dependent cytotoxicity (ADCC) and antibody-dependent cellular phagocytosis (ADCP); Fab: Fab of SWA11 antibody, G7s: scFv against human and mouse CD24; TW2, TW6, V2, V3, V4, V6, V7, V8, V9, V10, V14, V15, V16: different humanized anti-CD24 antibodies; hIgG: human IgG isotype control. FIG. 1A: anti-steatosis activity of SWA-11, Fab, TW2, TW6 and G7S; FIG. 1B: anti-steatosis activity of V2, V3, V4, V6, V7, V8, V9, V10, V14, V15, V16; FIG. 1C: anti-steatosis of SWA11, Fab, ML5, SN3, MOSW1, MOSW2, MOSW3; FIG. 1D: anti-steatosis of 3 small molecules that bind CD24.
Specifically, Huh7 cells, which are liver hepatoma cells, were cultured in 1% DMSO (Huh7D cells) and then supplemented with fatty medium to induce steatosis. […] To determine the degree of steatosis, cells were stained with 1 mg/ml Nile Red solution (Sigma Aldrich) in cell culture medium for 15 mins at 37° C. and florescence signal was measured.

[2] = system: NSG mice with humanized livers; assay: NSG mice with humanized livers on HFD: graft survival, human albumin, CT; assay type: in vivo, mouse
Procedure: In order to determine the effect of anti-CD24 agent in a more physiologic model of human fatty liver disease, we used a mouse model in which human liver can be engrafted. Briefly, NSG mice with humanized livers were prepared using the RAAPID-TKG method. These mice contain chimeric livers that harbor both murine and human hepatocytes and the degree of human liver engraftment can be ascertained by measuring serum human albumin. 2 mice with similar degrees of human liver engraftment, as measured by baseline serum human albumin, were placed on HFD for 6 weeks and then treated with either IgG control or an anti-CD24 antibody—which we term MOSW3—whose Fc has been engineered to contain point mutations that abrogate ADCC, ADCP, as well as compliment binding activity, i.e., Fc-silent antibody. Antibodies were dosed at 25 μg twice a week.

| Molecule | anti-steatosis efficacy (relative lipid accumulation) [1] | steatosis on liver CT scan ([2]; 3 weeks post treatment, IgG treated mouse vs MOSW3 treated mouse) | human liver graft survival ([2]; HFD 6 weeks, then 25 μg twice a week, vs IgG control) | serum human albumin ([2]; humanized-liver NSG mice, HFD 6 weeks, then 25 μg twice a week, weekly serum for 3 weeks, vs IgG control) |
| --- | --- | --- | --- | --- |
| O=C(O)c1ccccc1C(=O)c1cn(-c2ccc(F)cc2)[n+]([O-])n1 [A] | anti-steatosis efficacy |  |  |  |
| Cc1cccc(-n2nc([N+](=O)[O-])c(NCc3ccc(F)cc3)[n+]2[O-])c1 [B] | anti-steatosis efficacy |  |  |  |
| B1 |  | The IgG treated mouse showed higher level of steatosis (FIG. 9B) compared to the MOSW3 treated mouse | longer graft survival | maintenance of serum human albumin |
